# According to IntAct's records for PubMed 32296183:
# B1: Catenin alpha-3 (Homo sapiens), Q9UI47-2 (parent)
# chain: MSAETPITLNIDPQDLQVQTFTVEKLLEPLIIQVTTLVNCPQNPSSRKKGRSKRASVLLASVEEATWNLLDKGEKIAQEATVLKDELTASLEEVRKESEALKVSAERFTDDPCFLPKREAVVQAARALLAAVTRLLILADMIDVMCLLQHVSAFQRTFESLKNVANKSDLQKTYQKLGKELENLDYLAFKRQQDLKSPNQRDEIAGARASLKENSPLLHSICSACLEHSDVASLKASKDTVCEEIQNALNVISNASQGIQNMTTPPEPQAATLGSALDELENLIVLNPLTVTEEEIRPSLEKRLEAIISGAALLADSSCTRDLHRERIIAECNAIRQALQDLLSEYMNNAGKKERSNTLNIALDNMCKKTRDLRRQLRKAIIDHVSDSFLDTTVPLLVLIEAAKNGREKEIKEYAAIFHEHTSRLVEVANLACSMSTNEDGIKIVKIAANHLETLCPQIINAALALAARPKSQAVKNTMEMYKRTWENHIHVLTEAVDDITSIDDFLAVSGMFLFF
# partner: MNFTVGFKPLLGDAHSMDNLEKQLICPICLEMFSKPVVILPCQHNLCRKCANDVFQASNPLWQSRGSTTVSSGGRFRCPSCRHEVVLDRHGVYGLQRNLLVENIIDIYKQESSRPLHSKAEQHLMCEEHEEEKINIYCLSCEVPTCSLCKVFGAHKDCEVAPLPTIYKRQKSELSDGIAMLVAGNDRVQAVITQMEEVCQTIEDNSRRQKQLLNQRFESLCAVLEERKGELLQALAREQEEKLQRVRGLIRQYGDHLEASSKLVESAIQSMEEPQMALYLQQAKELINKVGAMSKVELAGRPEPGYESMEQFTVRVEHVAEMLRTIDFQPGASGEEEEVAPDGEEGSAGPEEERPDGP
# B2: Succinate--CoA ligase [ADP-forming] subunit beta, mitochondrial (Homo sapiens), Q9P2R7 (parent)
# chain: MAASMFYGRLVAVATLRNHRPRTAQRAAAQVLGSSGLFNNHGLQVQQQQQRNLSLHEYMSMELLQEAGVSVPKGYVAKSPDEAYAIAKKLGSKDVVIKAQVLAGGRGKGTFESGLKGGVKIVFSPEEAKAVSSQMIGKKLFTKQTGEKGRICNQVLVCERKYPRREYYFAITMERSFQGPVLIGSSHGGVNIEDVAAESPEAIIKEPIDIEEGIKKEQALQLAQKMGFPPNIVESAAENMVKLYSLFLKYDATMIEINPMVEDSDGAVLCMDAKINFDSNSAYRQKKIFDLQDWTQEDERDKDAAKANLNYIGLDGNIGCLVNGAGLAMATMDIIKLHGGTPANFLDVGGGATVHQVTEAFKLITSDKKVLAILVNIFGGIMRCDVIAQGIVMAVKDLEIKIPVVVRLQGTRVDDAKALIADSGLKILACDDLDEAARMVVKLSEIVTLAKQAHVDVKFQLPI
# partner: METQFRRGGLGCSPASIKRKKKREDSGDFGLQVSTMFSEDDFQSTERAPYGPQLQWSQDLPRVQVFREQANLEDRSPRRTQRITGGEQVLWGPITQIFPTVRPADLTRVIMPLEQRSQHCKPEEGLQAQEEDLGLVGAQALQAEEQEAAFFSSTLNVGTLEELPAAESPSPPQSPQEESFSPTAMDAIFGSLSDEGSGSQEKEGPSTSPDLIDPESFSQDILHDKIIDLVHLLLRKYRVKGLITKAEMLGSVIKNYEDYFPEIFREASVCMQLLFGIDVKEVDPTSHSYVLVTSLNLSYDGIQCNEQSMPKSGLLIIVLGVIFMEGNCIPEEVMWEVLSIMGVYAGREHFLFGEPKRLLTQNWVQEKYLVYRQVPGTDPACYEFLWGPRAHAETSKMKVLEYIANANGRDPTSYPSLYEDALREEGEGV
# B3: Catenin alpha-3 (Homo sapiens), Q9UI47-2 (parent)
# chain: B1 chain
# partner: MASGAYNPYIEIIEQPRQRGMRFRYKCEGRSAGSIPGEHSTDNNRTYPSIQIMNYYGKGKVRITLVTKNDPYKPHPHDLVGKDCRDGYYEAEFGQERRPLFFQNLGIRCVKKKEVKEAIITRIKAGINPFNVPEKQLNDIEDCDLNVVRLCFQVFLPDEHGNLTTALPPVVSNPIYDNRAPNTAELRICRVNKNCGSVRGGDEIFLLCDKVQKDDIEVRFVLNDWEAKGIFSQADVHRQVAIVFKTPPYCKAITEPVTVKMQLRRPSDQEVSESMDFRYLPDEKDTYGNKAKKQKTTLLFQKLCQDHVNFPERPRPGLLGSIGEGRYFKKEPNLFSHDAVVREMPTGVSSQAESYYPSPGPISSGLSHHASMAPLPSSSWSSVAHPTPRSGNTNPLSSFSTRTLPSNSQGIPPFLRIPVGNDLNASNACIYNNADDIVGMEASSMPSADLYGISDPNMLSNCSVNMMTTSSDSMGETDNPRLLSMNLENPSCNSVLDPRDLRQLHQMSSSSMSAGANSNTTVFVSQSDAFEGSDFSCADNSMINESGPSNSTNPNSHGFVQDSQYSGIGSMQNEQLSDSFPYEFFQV
# B4: Golgi SNAP receptor complex member 2 (Homo sapiens), O14653 (parent)
# chain: MDPLFQQTHKQVHEIQSCMGRLETADKQSVHIVENEIQASIDQIFSRLERLEILSSKEPPNKRQNARLRVDQLKYDVQHLQTALRNFQHRRHAREQQERQREELLSRTFTTNDSDTTIPMDESLQFNSSLQKVHNGMDDLILDGHNILDGLRTQRLTLKGTQKKILDIANMLGLSNTVMRLIEKRAFQDKYFMIGGMLLTCVVMFLVVQYLT
# partner: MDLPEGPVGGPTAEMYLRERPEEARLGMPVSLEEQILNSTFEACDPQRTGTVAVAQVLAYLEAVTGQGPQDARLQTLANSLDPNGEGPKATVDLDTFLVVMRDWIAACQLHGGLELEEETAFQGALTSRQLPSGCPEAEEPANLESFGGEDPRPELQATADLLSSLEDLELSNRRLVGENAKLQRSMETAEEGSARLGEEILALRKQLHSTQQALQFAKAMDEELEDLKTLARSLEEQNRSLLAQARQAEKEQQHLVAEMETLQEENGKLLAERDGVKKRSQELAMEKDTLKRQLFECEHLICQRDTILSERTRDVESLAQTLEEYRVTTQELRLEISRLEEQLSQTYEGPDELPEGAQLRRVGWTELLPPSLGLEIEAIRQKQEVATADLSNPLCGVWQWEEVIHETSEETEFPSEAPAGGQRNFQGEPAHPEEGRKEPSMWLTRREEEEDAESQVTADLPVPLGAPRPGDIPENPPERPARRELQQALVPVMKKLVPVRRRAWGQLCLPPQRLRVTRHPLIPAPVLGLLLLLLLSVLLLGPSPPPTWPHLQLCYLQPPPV
# B5: Catenin alpha-3 (Homo sapiens), Q9UI47-2 (parent)
# chain: B1 chain
# partner: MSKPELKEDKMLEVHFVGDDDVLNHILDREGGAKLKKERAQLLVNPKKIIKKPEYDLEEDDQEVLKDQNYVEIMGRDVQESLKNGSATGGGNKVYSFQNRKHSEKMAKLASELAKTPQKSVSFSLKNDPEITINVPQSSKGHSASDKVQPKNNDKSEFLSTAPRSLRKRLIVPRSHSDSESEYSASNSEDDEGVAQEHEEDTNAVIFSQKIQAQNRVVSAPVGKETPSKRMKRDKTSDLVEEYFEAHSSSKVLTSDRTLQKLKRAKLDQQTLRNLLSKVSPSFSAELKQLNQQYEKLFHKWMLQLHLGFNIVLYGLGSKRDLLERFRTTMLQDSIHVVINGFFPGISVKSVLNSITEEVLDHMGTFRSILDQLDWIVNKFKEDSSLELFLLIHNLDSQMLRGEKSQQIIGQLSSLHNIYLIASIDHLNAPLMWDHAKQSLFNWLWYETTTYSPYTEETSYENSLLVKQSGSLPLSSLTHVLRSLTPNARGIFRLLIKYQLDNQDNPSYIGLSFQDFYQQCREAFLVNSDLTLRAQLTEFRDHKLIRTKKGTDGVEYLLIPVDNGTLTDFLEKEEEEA
# Variants of: B1
# Details: with tri54_human TRIM54, Q9BYV2
row,effect of a mutation on the interaction,Variant
1,disrupting interaction strength,MSAETPITLNIDPQDLQVQTFTVEKLLEPLIIQVTTLVNCPQNPSSRKKGRSKRASVLLASVEEATWNLLDKGEKIAQEATVLKDELTASLEEDRKESEALKVSAERFTDDPCFLPKREAVVQAARALLAAVTRLLILADMIDVMCLLQHVSAFQRTFESLKNVANKSDLQKTYQKLGKELENLDYLAFKRQQDLKSPNQRDEIAGARASLKENSPLLHSICSACLEHSDVASLKASKDTVCEEIQNALNVISNASQGIQNMTTPPEPQAATLGSALDELENLIVLNPLTVTEEEIRPSLEKRLEAIISGAALLADSSCTRDLHRERIIAECNAIRQALQDLLSEYMNNAGKKERSNTLNIALDNMCKKTRDLRRQLRKAIIDHVSDSFLDTTVPLLVLIEAAKNGREKEIKEYAAIFHEHTSRLVEVANLACSMSTNEDGIKIVKIAANHLETLCPQIINAALALAARPKSQAVKNTMEMYKRTWENHIHVLTEAVDDITSIDDFLAVSGMFLFF [V94D]

# Variants of: B2
# Details: with magab_human MAGEA11, P43364
row,effect of a mutation on the interaction,Variant
1,disrupting interaction strength,MAASMFYGRLVAVATLRNHRPRTAQRAAAQVLGSSGLFNNHGLQVQQQQQRNLSLHEYMSMELLQEAGVSVPKGYVAKSPDEAYAIAKKLGSKDVVIKAQVLAGGRGKGTFESGLKGRVKIVFSPEEAKAVSSQMIGKKLFTKQTGEKGRICNQVLVCERKYPRREYYFAITMERSFQGPVLIGSSHGGVNIEDVAAESPEAIIKEPIDIEEGIKKEQALQLAQKMGFPPNIVESAAENMVKLYSLFLKYDATMIEINPMVEDSDGAVLCMDAKINFDSNSAYRQKKIFDLQDWTQEDERDKDAAKANLNYIGLDGNIGCLVNGAGLAMATMDIIKLHGGTPANFLDVGGGATVHQVTEAFKLITSDKKVLAILVNIFGGIMRCDVIAQGIVMAVKDLEIKIPVVVRLQGTRVDDAKALIADSGLKILACDDLDEAARMVVKLSEIVTLAKQAHVDVKFQLPI [G118R]
2,disrupting interaction strength,MAASMFYGRLVAVATLRNHRPRTAQRAAAQVLGSSGLFNNHGLQVQQQQQRNLSLHEYMSMELLQEAGVSVPKGYVAKSPDEAYAIAKKLGSKDVVIKAQVLAGGRGKGTFESGLKGGVKIVFSPEEAKAVSSQMIGKKLFTKQTGEKGRICNQVLVCERKYPRREYYFAITMERSFQGPVLIGSSHGGVNIEDVAAESPEAIIKEPIDIEEGIKKEQALQLAQKMGFPPNIVESAAENMVKLYSLFLKYNATMIEINPMVEDSDGAVLCMDAKINFDSNSAYRQKKIFDLQDWTQEDERDKDAAKANLNYIGLDGNIGCLVNGAGLAMATMDIIKLHGGTPANFLDVGGGATVHQVTEAFKLITSDKKVLAILVNIFGGIMRCDVIAQGIVMAVKDLEIKIPVVVRLQGTRVDDAKALIADSGLKILACDDLDEAARMVVKLSEIVTLAKQAHVDVKFQLPI [D251N]

# Variants of: B3
# Details: with REL
row,effect of a mutation on the interaction,Variant
1,with no effect,MSAETPITLNIDPQDLQVQTFTVEKLLEPLIIQVTTLVNCPQNPSSRKKGRSKRASVLLASVEEATWNLLDKGEKIAQEATVLKDELTASLEEDRKESEALKVSAERFTDDPCFLPKREAVVQAARALLAAVTRLLILADMIDVMCLLQHVSAFQRTFESLKNVANKSDLQKTYQKLGKELENLDYLAFKRQQDLKSPNQRDEIAGARASLKENSPLLHSICSACLEHSDVASLKASKDTVCEEIQNALNVISNASQGIQNMTTPPEPQAATLGSALDELENLIVLNPLTVTEEEIRPSLEKRLEAIISGAALLADSSCTRDLHRERIIAECNAIRQALQDLLSEYMNNAGKKERSNTLNIALDNMCKKTRDLRRQLRKAIIDHVSDSFLDTTVPLLVLIEAAKNGREKEIKEYAAIFHEHTSRLVEVANLACSMSTNEDGIKIVKIAANHLETLCPQIINAALALAARPKSQAVKNTMEMYKRTWENHIHVLTEAVDDITSIDDFLAVSGMFLFF [V94D]

# Variants of: B4
# Details: with kash5_human KASH5, Q8N6L0
row,effect of a mutation on the interaction,Variant
1,with no effect,MDPLFQQTHKQVHEIQSCMGRLETADKQSVHIVENEIQASIDQIFSRLERLEILSSKEPPNKRQNARLRVDQLKYDVQHLQTALRNFQHRRHAREQQERQREELLSRTFTTNDSDTTIPMDESLQFNSSLQKVHNGMDDLILDWHNILDGLRTQRLTLKGTQKKILDIANMLGLSNTVMRLIEKRAFQDKYFMIGGMLLTCVVMFLVVQYLT [G144W]

# Variants of: B5
# Details: with orc2_human ORC2, Q13416
row,effect of a mutation on the interaction,Variant
1,disrupting interaction strength,MSAETPITLNIDPQDLQVQTFTVEKLLEPLIIQVTTLVNCPQNPSSRKKGRSKRASVLLASVEEATWNLLDKGEKIAQEATVLKDELTASLEEDRKESEALKVSAERFTDDPCFLPKREAVVQAARALLAAVTRLLILADMIDVMCLLQHVSAFQRTFESLKNVANKSDLQKTYQKLGKELENLDYLAFKRQQDLKSPNQRDEIAGARASLKENSPLLHSICSACLEHSDVASLKASKDTVCEEIQNALNVISNASQGIQNMTTPPEPQAATLGSALDELENLIVLNPLTVTEEEIRPSLEKRLEAIISGAALLADSSCTRDLHRERIIAECNAIRQALQDLLSEYMNNAGKKERSNTLNIALDNMCKKTRDLRRQLRKAIIDHVSDSFLDTTVPLLVLIEAAKNGREKEIKEYAAIFHEHTSRLVEVANLACSMSTNEDGIKIVKIAANHLETLCPQIINAALALAARPKSQAVKNTMEMYKRTWENHIHVLTEAVDDITSIDDFLAVSGMFLFF [V94D]
